The record followed here is the RNAGym collection of RNA variant scans (doi:10.7554/elife.80360).

The chains are these.
B1: Hairpin Ribozyme (parent)
chain: GUCCUCUUUCACGUGCGCGUGAAAGAGAGAAGUGAACCAGAGAAACACACGUUGUGGUAUAUUACCUGGUA

The variants in the series derive from B1. The experiment in a line: self-cleavage, relative activity (ratio to wild type); higher = more cleavage; co-transcriptional.
For C10U G40U, the self-cleavage was 0.203.

In the case of A26C U58C, the self-cleavage is 0.771.

On to A26U C48A, for which the self-cleavage was 0.153.

As for U7C U20C, the self-cleavage is 1.14.

As to C4G A41C, the self-cleavage came out at 0.236.

Take U14C U58G: the self-cleavage amounted to 0.545.

In the case of A31C C37U, the self-cleavage came out at 0.134.

On to G25U U63G, for which the self-cleavage was found to be 0.174.

Turning to A43U U53C, the self-cleavage turned out to be 0.111.

In the case of C12A G29A, the self-cleavage stood at 0.162.

C4G A11G: the self-cleavage worked out at 0.272.

U7A C48U: the self-cleavage worked out at 0.0656.

G17A A26G: the self-cleavage amounted to 1.01.

Turning to A23G G54U, the self-cleavage turned out to be 0.586.

For the variant A41C G56A, the self-cleavage amounted to 0.155.

For the variant U20A A71U, the self-cleavage came out at 0.735.

Take U5C A31C: the self-cleavage came out at 0.0543.

Regarding G15U G19C, the self-cleavage is 1.

As for U8C G32C, the self-cleavage came to 0.0916.

For the variant A41C C66G, the self-cleavage is 0.292.

As for A59G G68A, the self-cleavage came out at 0.135.

On to G27C A36G, for which the self-cleavage came out at 0.14.

As to G17A C46G, the self-cleavage came to 0.211.

Consider A43C A44C, for which the self-cleavage came out at 0.259.

In the case of U63G C65U, the self-cleavage came to 0.11.

For A49C G56C, the self-cleavage worked out at 0.12.

Turning to A26U A43G, the self-cleavage stood at 0.121.

Regarding U9G U55G, the self-cleavage came out at 0.0748.

Take A49U U55C: the self-cleavage was 0.349.

As to A22C U70G, the self-cleavage turned out to be 0.763.

In the case of C12A U52A, the self-cleavage stood at 0.763.

Take U8G G54U: the self-cleavage was determined as 0.37.

Regarding C38A A71U, the self-cleavage was determined as 0.129.

Turning to C6U G40U, the self-cleavage turned out to be 0.166.

Take A30U A49U: the self-cleavage turned out to be 0.274.

Take A22G A64U: the self-cleavage was 0.173.

G25C G54A: the self-cleavage amounted to 0.239.

In the case of G1A C38U, the self-cleavage stood at 0.115.

As to G27C G29U, the self-cleavage worked out at 0.179.

Regarding G1C G32C, the self-cleavage came to 0.116.

A31U A44G: the self-cleavage is 0.215.

Take A49G G51U: the self-cleavage is 0.532.

With C4U G40U, the self-cleavage is 0.0478.

For the variant A39U C46A, the self-cleavage stood at 0.166.

Regarding G1A U8G, the self-cleavage was found to be 0.158.

With U55A C66A, the self-cleavage was found to be 0.188.

Regarding A23G C37A, the self-cleavage turned out to be 0.287.

Turning to A59U A71C, the self-cleavage is 0.153.

Take G51A U70A: the self-cleavage was 1.09.

Turning to A43G C48A, the self-cleavage turned out to be 0.174.

As for G25U A61U, the self-cleavage stood at 0.185.

Take C16U A45C: the self-cleavage is 0.066.

In the case of A24C A47G, the self-cleavage stood at 0.113.

Consider G21A U67G, for which the self-cleavage was found to be 0.241.

Turning to C37U G56C, the self-cleavage worked out at 0.198.

As to G15C G19U, the self-cleavage was found to be 0.953.

As for G29U G42U, the self-cleavage was found to be 0.107.

With U7G A11U, the self-cleavage worked out at 0.58.

As to A31G G51A, the self-cleavage amounted to 0.927.

For U55A A59G, the self-cleavage amounted to 0.163.

Regarding G29C U33G, the self-cleavage was 0.13.

Turning to G57A U63G, the self-cleavage is 0.182.

On to C4U A11C, for which the self-cleavage amounted to 0.191.

As to A41G A47U, the self-cleavage amounted to 0.212.

Consider U5G U55A, for which the self-cleavage was determined as 0.139.

In the case of A47C A64U, the self-cleavage was 0.218.

Regarding G1A U70C, the self-cleavage was 0.154.

For G13C C16U, the self-cleavage turned out to be 0.573.

Take C6G A44G: the self-cleavage was 0.134.

As to C6U C66A, the self-cleavage is 0.11.

U8C A23U: the self-cleavage was 0.841.

On to G27A A36G, for which the self-cleavage stood at 0.42.

For U20A G29A, the self-cleavage was found to be 0.101.

For the variant C10A U52A, the self-cleavage was found to be 0.783.

Turning to U8A A45U, the self-cleavage is 0.198.

With G1C C66A, the self-cleavage was found to be 0.351.

With G29U G51A, the self-cleavage worked out at 0.139.

Regarding U8A A28U, the self-cleavage is 0.613.

Turning to G17C C38A, the self-cleavage amounted to 0.199.

Take U7G G51C: the self-cleavage was found to be 0.908.

As to G21C U70G, the self-cleavage is 0.658.

G13U A30G: the self-cleavage was determined as 0.191.

Regarding A36C C48A, the self-cleavage was determined as 0.142.

As to G32A U70A, the self-cleavage came to 0.139.

Turning to C6U C16U, the self-cleavage turned out to be 0.971.

Take A24C U33A: the self-cleavage stood at 0.2.

For the variant G40U G57U, the self-cleavage was 0.153.

Take C65U C66A: the self-cleavage was 0.172.

G42C G68U: the self-cleavage was determined as 0.138.

For G1C C3U, the self-cleavage is 0.18.

Turning to G21U U63A, the self-cleavage turned out to be 0.105.

Take C12G U67A: the self-cleavage was 0.202.

As to C16U G54C, the self-cleavage amounted to 0.411.

In the case of C48U U58G, the self-cleavage stood at 0.152.

For C37G U70A, the self-cleavage came to 0.488.

C18G U58G: the self-cleavage was 0.89.

For A30U C38G, the self-cleavage stood at 0.108.

As to A30C C38U, the self-cleavage came to 0.209.

For the variant G21U A36C, the self-cleavage amounted to 0.463.

On to A49G A59C, for which the self-cleavage came out at 0.194.

For the variant A44U U53G, the self-cleavage came out at 0.159.

Consider A26G G34C, for which the self-cleavage was 1.01.

Take U8A C50U: the self-cleavage was 0.311.

On to A22C C46G, for which the self-cleavage was determined as 0.187.

For the variant U63A G69C, the self-cleavage stood at 0.0966.

Consider G42A A64C, for which the self-cleavage stood at 0.129.

As to G1U A64G, the self-cleavage stood at 0.0823.

In the case of U55G C66U, the self-cleavage amounted to 0.422.

As for U5G G13U, the self-cleavage is 0.361.

For C4U G17C, the self-cleavage is 0.266.

For the variant A31C C38G, the self-cleavage is 0.196.

On to G1U G32A, for which the self-cleavage worked out at 0.146.

Consider U33A G40A, for which the self-cleavage amounted to 0.108.

On to A11U A43U, for which the self-cleavage amounted to 0.078.

Turning to A49G U53G, the self-cleavage turned out to be 0.44.

As for C38G U58C, the self-cleavage was 0.185.

As to C50G U62C, the self-cleavage amounted to 0.158.

For the variant A22C G27U, the self-cleavage stood at 0.411.

Regarding G34A G42A, the self-cleavage came to 0.356.

On to A28C G69U, for which the self-cleavage is 0.0989.

Regarding G1A U2G, the self-cleavage turned out to be 0.895.

As to A11G A39G, the self-cleavage was 0.323.

Consider G34A U55A, for which the self-cleavage amounted to 0.518.

Consider A36G A47U, for which the self-cleavage worked out at 0.127.

Turning to U2C G13A, the self-cleavage amounted to 0.217.

G29C C66U: the self-cleavage was determined as 0.135.

Consider A35C U67A, for which the self-cleavage is 0.301.

Regarding U52G A71G, the self-cleavage was 0.654.

For the variant C16G, the self-cleavage was 0.774.

Turning to C16A C50U, the self-cleavage worked out at 0.309.

In the case of U8G G21A, the self-cleavage turned out to be 0.693.

As for C50U U55A, the self-cleavage is 0.32.

For the variant G13C A59C, the self-cleavage came to 0.11.

For A28C A49G, the self-cleavage was 0.173.

With U20C G32U, the self-cleavage stood at 0.157.

Turning to A43U U70C, the self-cleavage is 0.159.

As to C12U A23U, the self-cleavage is 0.807.

For the variant C12A G69C, the self-cleavage came out at 0.275.

In the case of C18U A35C, the self-cleavage stood at 0.968.

On to U7C A43U, for which the self-cleavage was 0.151.

As to A30U U53G, the self-cleavage came to 0.277.

In the case of G40C U52G, the self-cleavage is 0.064.

With A26G A49G, the self-cleavage came out at 0.665.

As for G17C G57U, the self-cleavage is 0.222.

On to G29A C38U, for which the self-cleavage was found to be 0.19.

As for G1A A26U, the self-cleavage worked out at 0.11.

Consider A26G A45G, for which the self-cleavage is 0.132.

With A24U U55A, the self-cleavage is 0.186.

A22G C38U: the self-cleavage was 0.589.

With G19A U52C, the self-cleavage was determined as 0.835.

Turning to U58A G68A, the self-cleavage worked out at 0.272.

As to U20A G56A, the self-cleavage was 0.108.

C3G A41G: the self-cleavage came to 0.193.

Consider A28U A49G, for which the self-cleavage stood at 0.365.

Regarding C6U C65U, the self-cleavage was 0.323.

Turning to G54C G57C, the self-cleavage amounted to 0.155.

Turning to U2C U63A, the self-cleavage was found to be 0.115.

In the case of U33G C65A, the self-cleavage was 0.189.

In the case of G17A C38A, the self-cleavage was found to be 0.169.

With C3G U67G, the self-cleavage was 0.102.

As for C3G U63C, the self-cleavage came to 0.164.

Turning to C18U U55A, the self-cleavage is 0.128.

Turning to U20G U55C, the self-cleavage is 0.268.

On to C3G A49U, for which the self-cleavage was determined as 0.188.

With C38A A43U, the self-cleavage worked out at 0.152.

On to U2G A28G, for which the self-cleavage is 0.138.

In the case of C3U A30U, the self-cleavage was found to be 0.0886.
